In US20140004106A1:

How the values were obtained:
[1] = target: 28mer peptide of the CXCR5 antigen; assay: ELISA potency (binding); 100 mg/mL, Sucrose (60) + NaCl (2), 7 days at 40°C
[2] = target: 28mer peptide of the CXCR5 antigen; assay: Antigen-ELISA; PBS 155 mM, 1 h purged with air, 24 h
[3] = target: 28mer peptide of the CXCR5 antigen; assay: ELISA potency (binding); 100 mg/mL, Glycine (20) + NaCl (2), T zero
[4] = target: 28mer peptide of the CXCR5 antigen; assay: Antigen-ELISA; PBS 155 mM pH 6.50, T0
[5] = target: 28mer peptide of the CXCR5 antigen; assay: Antigen-ELISA; PBS 155 mM, clear glass type I + V2A piece, 24 h
[6] = target: 28mer peptide of the CXCR5 antigen; assay: Antigen-ELISA; PBS 155 mM, clear glass type I, 24 h +40°C
[7] = target: 28mer peptide of the CXCR5 antigen; assay: Potency (Antigen ELISA); stored +5°C, initial
[8] = target: 28mer peptide of the CXCR5 antigen; assay: Antigen-ELISA; Acetate 10 mM pH 5.50, after 1 week at +40°C
[9] = target: 28mer peptide of the CXCR5 antigen; assay: ELISA potency (binding); 100 mg/mL, Lysine (30) + NaCl (2), 7 days at 40°C
[10] = target: 28mer peptide of the CXCR5 antigen; assay: Potency (Antigen ELISA); stored -20°C, 12 months
[11] = target: 28mer peptide of the CXCR5 antigen; assay: Ag-ELISA; DS in PBS, 25°C, 1 month
[12] = target: 28mer peptide of the CXCR5 antigen; assay: Antigen-ELISA; Citrate 10 mM pH 5.00, after mechanical stress 350 rpm 2.5 h
[13] = target: 28mer peptide of the CXCR5 antigen; assay: ELISA potency (binding); 100 mg/mL, Lysine (30) + Mannitol (15), 7 days at 40°C
[14] = target: 28mer peptide of the CXCR5 antigen; assay: Antigen-ELISA; standard run with LA_09_29D, T0
[15] = target: 28mer peptide of the CXCR5 antigen; assay: Antigen-ELISA; Arginine 10 mM pH 6, after 1 week at +40°C
[16] = target: 28mer peptide of the CXCR5 antigen; assay: Potency (Antigen ELISA); stored +5°C, 1 month
[17] = target: 28mer peptide of the CXCR5 antigen; assay: Potency (Antigen ELISA); stored +5°C, 3 months
[18] = target: 28mer peptide of the CXCR5 antigen; assay: ELISA potency (binding); 100 mg/mL, Lysine (30) + NaCl (2), T zero
[19] = target: 28mer peptide of the CXCR5 antigen; assay: Potency (Antigen ELISA); stored +5°C, 18 months
[20] = target: 28mer peptide of the CXCR5 antigen; assay: Potency (Antigen ELISA); stored -20°C, 3 months
[21] = target: 28mer peptide of the CXCR5 antigen; assay: Antigen-ELISA; Succinate 10 mM pH 6.00, after 1 week at +40°C
[22] = target: 28mer peptide of the CXCR5 antigen; assay: Potency (Antigen ELISA); stored +25°C, initial
[23] = target: 28mer peptide of the CXCR5 antigen; assay: Potency (Antigen ELISA); stored -20°C, initial
[24] = target: 28mer peptide of the CXCR5 antigen; assay: Antigen-ELISA; PBS 155 mM pH 6.50, after 1 week at +40°C
[25] = target: 28mer peptide of the CXCR5 antigen; assay: Antigen-ELISA; PB 10 mM pH 6.50, T0
[26] = target: 28mer peptide of the CXCR5 antigen; assay: Antigen-ELISA; standard run with LA_09_004_4
[27] = target: 28mer peptide of the CXCR5 antigen; assay: Antigen-ELISA; Arginine 10 mM pH 8, after 1 week at +40°C
[28] = target: 28mer peptide of the CXCR5 antigen; assay: Antigen-ELISA; standard run with LA_09_29B, T0
[29] = target: 28mer peptide of the CXCR5 antigen; assay: Antigen-ELISA; Succinate 10 mM pH 5.00, T0
[30] = target: 28mer peptide of the CXCR5 antigen; assay: Antigen-ELISA; Citrate 10 mM pH 5.00, T0
[31] = target: 28mer peptide of the CXCR5 antigen; assay: ELISA potency (binding); 100 mg/mL, Arginine (30), 7 days at 40°C
[32] = target: 28mer peptide of the CXCR5 antigen; assay: Antigen-ELISA; Citrate 10 mM pH 7.00, after 1 week at +40°C
[33] = target: 28mer peptide of the CXCR5 antigen; assay: Antigen-ELISA; standard run with LA_09_004_7
[34] = target: 28mer peptide of the CXCR5 antigen; assay: Antigen-ELISA; PB 10 mM pH 6.50, after mechanical stress 350 rpm 2.5 h
[35] = target: 28mer peptide of the CXCR5 antigen; assay: Antigen-ELISA; Succinate 10 mM pH 6.00, T0
[36] = target: 28mer peptide of the CXCR5 antigen; assay: Antigen-ELISA; Acetate 10 mM pH 5.00, T0
[37] = target: 28mer peptide of the CXCR5 antigen; assay: ELISA potency (binding); 100 mg/mL, Arginine (30), T zero
[38] = target: 28mer peptide of the CXCR5 antigen; assay: ELISA potency (binding); 100 mg/mL, Trehalose (60) + NaCl (2), T zero
[39] = target: 28mer peptide of the CXCR5 antigen; assay: Antigen-ELISA; standard run with LA_09_28C, T0
[40] = target: 28mer peptide of the CXCR5 antigen; assay: Antigen-ELISA; Citrate 10 mM pH 6.00, after 1 week at +40°C
[41] = target: 28mer peptide of the CXCR5 antigen; assay: Antigen-ELISA; PB 5 mM pH 6.50, after mechanical stress 350 rpm 2.5 h
[42] = target: 28mer peptide of the CXCR5 antigen; assay: Antigen-ELISA; standard run with LA_09_27C, T0
[43] = target: 28mer peptide of the CXCR5 antigen; assay: Antigen-ELISA; PBS 155 mM, clear glass type I as T0, 24 h

rel. potency [%] [1]: 188%
EC50 % [2]: 84.3%
rel. potency [%] [3]: 174%
EC50 % [4]: 139%
EC50 % [5]: 80.8%
EC50 % [6]: 131%
EC50 value (in comparison to reference) [7]: 75%
EC50 % [8]: 94.9%
rel. potency [%] [9]: 264%
EC50 value (in comparison to reference) [10]: 96%
EC50 % [11]: 106%
EC50 % [12]: 99%
rel. potency [%] [13]: 297%
EC50 % [14]: 100%
EC50 % [15]: 99%
EC50 value (in comparison to reference) [16]: 105%
EC50 value (in comparison to reference) [17]: 95%
rel. potency [%] [18]: 130%
EC50 value (in comparison to reference) [19]: 119%
EC50 value (in comparison to reference) [20]: 84%
EC50 % [21]: 126%
EC50 value (in comparison to reference) [22]: 75%
EC50 value (in comparison to reference) [23]: 75%
EC50 % [24]: 115%
EC50 % [25]: 105%
EC50 % [26]: 100%
EC50 % [27]: 88%
EC50 % [28]: 100%
EC50 % [29]: 124%
EC50 % [30]: 79%
rel. potency [%] [31]: 143%
EC50 % [32]: 111%
EC50 % [33]: 100%
EC50 % [34]: 89.4%
EC50 % [35]: 112%
EC50 % [36]: 147%
rel. potency [%] [37]: 160%
rel. potency [%] [38]: 110%
EC50 % [39]: 100%
EC50 % [40]: 98%
EC50 % [41]: 150%
EC50 % [42]: 100%
EC50 % [43]: 62.3%
B1: Lead CXCR5 Antibody (humanized IgG4 anti-CXCR5 antibody) (antibody, V domains shown)
VH: QVQLKESGPGLVAPSESLSITCTVSGFSLIDYGVNWIRQPPGKGLEWLGVIWGDGTTYYNPSLKSRLSISKDNSKSQVFLKVTSLTTDDTAMYYCARIVYWGQGTLVTVSA
VL: DIVMTQAAPSVAVTPGASVSISCRSSKSLLHSSGKTYLYWFLQRPGQSPQLLIYRLSSLASGVPDRFSGSGSGTAFTLRISRVEAEDVGVYYCMQHLEYPYTFGGGTKLEIKR
